Data taken from the supplement of paper PMC9170038.

Tested on: K4 kissing-loop RNA reporter
Assay: apparent KD of K4 kissing-loop reporter; higher = weaker reporter binding
Conditions: Eterna round: R107
Method: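 RNA-MaP round R107: designed RNA switches with theophylline, tryptophan, arginine or FMN aptamers are transcribed on-chip within common flanks. They are titrated with a labelled K4 kissing-loop RNA reporter in RNA-MaP buffer (100 mM Tris pH 7.5, 80 mM KCl, 4 mM MgCl2), without ligand or with the indicated ligand. Median apparent KD per design.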

[1] = input ligand: theophylline 20 uM
[2] = input ligand: tryptophan 2.4 mM
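Also: bound reporter read as fluorescence of individual clusters on recovered sequencing chips by microscopy, with normalized cluster intensities fitted with a binding model.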

Row | Sequence | apparent KD of K4 kissing-loop reporter (input ligand: FMN 200 uM) | apparent KD of K4 kissing-loop reporter (input ligand: arginine 13.2 mM) | apparent KD of K4 kissing-loop reporter (input ligand: none) | apparent KD of K4 kissing-loop reporter [1] | apparent KD of K4 kissing-loop reporter [2]
1 | AAGCAGUCACUCGAAAUCAUCGAAGAUGAACGAGGACCGGUACGGCCGCCACUCGGAGUGAUGUUCCGAAGACUGCAAAAUAAAA [MatMod 1 - Jieux - Exclusion - Tryptophan A] | 593 nM | 410 nM | 475 nM | 477 nM | 106 nM
2 | AAGCAGUCACUCGAACCCAUCGAAGAUGGGCGAGGACCGGUACGGCCGCCACUCGGAGUGAUGUUCCGAAGACUGCAAAAUAAAA | 329 nM | 367 nM | 293 nM | 341 nM | 555 nM
3 | AAGCAGUCACUCGAAGCCAUCGAAGAUGGGCGAGGACCGGUACGGCCGCCACUCGGAGUGAUGUUCCGAGGACUGCAAAAUAAAA [MatMod 4 - Jieux - Exclusion - Tryptophan A] | 507 nM | 365 nM | 350 nM | 299 nM | 311 nM
4 | AAGCAGUCACUCGACACCAUCGAAGAUGGGCGAGGACCGGUACGGCCGCCACUCGGAGUGAUGUUCUGAUGACUGCAAAAUAAAA [MatMod 9 - Jieux - Exclusion - Tryptophan A] | 99.9 nM | 60.1 nM | 86.3 nM | 158 nM | 75.6 nM
5 | AAGCAGUCACUCGACGCCAUCGAAGAUGGGCGAGGACCGGUACGGCCGCCACUCGGAGUGAUGUUCCGAAGACUGCAAAAUAAAA [MatMod 6 - Jieux - Exclusion - Tryptophan A] | 356 nM | 317 nM | 384 nM | 329 nM | 480 nM
6 | AAGCAGUCACUCGCAGCCAUCGAAGAUGGUCGAGGACCGGUACGGCCGCCACUCGGAGUGAUGUUCCGAAGACUGCAAAAUAAAA | 281 nM | 259 nM | 282 nM | 325 nM | 400 nM
7 | AAGCAGUCAGGAUCGAAGAUCCUGCAAUACCGAGGACCGGUACGGCCGCCACUCGGAGUGAUGUUCCGAAGACUGCAAAAUAAAA [#SwitchBubble 7] | 436 nM | 255 nM | 243 nM | 57.9 nM | 152 nM
8 | AAGCAGUUCUCAAAGAGUACUGCAGGACAGCAGGAUAUAGUGAUGUUGAGAAGGGCUGUCCCGUCUGCAUGAAACAUGCAGACGA [Simply curious] | 1350 nM | 688 nM | 808 nM | 1290 nM | 688 nM
9 | AAGCCAUACUCGGCCGCCACUUACUUCGUUGCAGUGAUGUUGCACACGAAUCCGUCAUAGCAAAUAAGGACCGGGAGAUAUACCG [theeternabot_exclusion_KL_Trp_B_19] | 89.3 nM | 89.3 nM | 95.1 nM | 87.5 nM | 86.3 nM
10 | AAGGUUUAGCACGAUACCAGCCUGGAGGCCAGUGAUGUUGGCCGAUUUGAACAGAAUUAAGGCCCUUGGCAGCGUCUCUAAAACC [Dierra] | 191 nM | 180 nM | 192 nM | 144 nM | 176 nM
11 | AAGUACACGAUAGUGUACACCUAGUGAUGUUAGGAUAUGCAGAUAUGCAGAAGGAACAAGUCAUCUGACAAUAGUCGGAUGACAA [FmnAX 6 #OpenEnded #K4Early] | 577 nM | 75.5 nM | 109 nM | 110 nM | 98 nM
12 | AAGUAGCUCUCGGCCGCCACUCCUCAGUGAUGUUGAGAUUUUUUCUGCCAAUUGGCGUUUUUUUAGAGGACCGGGAGAGCUACAA [AK1 SS Tryptophan B] | 332 nM | 365 nM | 339 nM | 291 nM | 124 nM
13 | AAGUCAUAUAGAAGGAGCGUGUUUUUUAAUUUGUUUUCAUGAUCGAGUGAUGUUCGAUAUACACAGGUAGGUCGCUGUAUAAUAA [hbob_SS_Arginine_B_2t142] | 119 nM | 141 nM | 131 nM | 127 nM | 106 nM
14 | AAGUGAUGUUGUAGUGAUGUUGUGAUGUUGCAGGAUAUAUAGUGAUGUAGAAGGGUAAGUACUCAUGUUGUUAGUAAGUGAUGUU [bttutmullin] | 91.5 nM | 43.2 nM | 81.7 nM | 63.7 nM | 74.2 nM
15 | AAGUGGGAACGGCCCAAUAAAGUGUUUGUCAAGGAUAUUAUUCACAUAAGAAGGUGACAGACCACCUCCGGAGUGAUGUUUUGGA [theeternabot_sameState_KL_FMN_A_42] | 581 nM | 443 nM | 719 nM | 508 nM | 539 nM
16 | AAGUUAUGAUCUGAUACCAGACUUUAUCUUGUUUAUAAGUCAAGUGAUGUUUGACUAUUAGUCCCUUGGCAGCAGUAUUGUUUAA [#18 K4 Theophylline B Same State] | 263 nM | 268 nM | 302 nM | 228 nM | 255 nM
17 | AAGUUGAACUGAAGGAGCGAGAAAUAGAAUGUAAGAAUAUAUGCUAGUGAUGUUAGAAAUUCUCAGGUAGGUCGCAGUAAGAAUU [V1] | 368 nM | 357 nM | 442 nM | 510 nM | 317 nM
18 | AAUAAUGGAGUGAUGUUCCAGUAAUGGGAUACCAGACAUGAAAAUGUCCCUUGGCAGCUCAAAGGUCUAGUGAUGUUAUAAAGAA [KL-SSTheo-A6] | 475 nM | 510 nM | 554 nM | 401 nM | 377 nM
19 | AAUAUAUAGUGAAGGAGCGCGAUAAGCAGUGAUGUUGCUUAGUUAUUAGUGUUUAUUUUUACGCAGGUAGGUCGCACUAUAUAUA [JR_ExcArginiB_Sub017] | 115 nM | 105 nM | 114 nM | 101 nM | 114 nM
20 | AAUAUCUAGUAUAUUUUUAAUAAAACAGAUACCAGUGAUAAUAGACACCCUUGGCAGCUGGUCGAGUGAUGUUCGUUUAUAUUAA [JR_SSTheophyA_Sub006] | 85.5 nM | 83.6 nM | 104 nM | 176 nM | 57.3 nM
21 | AAUAUGAAGCAGUGAUGUUGCUUAUGAGAAGGAGCGCACGAAAGUGCAGGUAGGUCGCUCAGCCAAGUGGACGAAAACGUCCACA [whbob_SS_Arginine_A_sa107] | 98.3 nM | 99.9 nM | 86.6 nM | 87.2 nM | 91 nM

Row | Sequence | apparent KD of K4 kissing-loop reporter (input ligand: FMN 200 uM) | apparent KD of K4 kissing-loop reporter (input ligand: arginine 13.2 mM) | apparent KD of K4 kissing-loop reporter (input ligand: none) | apparent KD of K4 kissing-loop reporter [1] | apparent KD of K4 kissing-loop reporter [2]
22 | AAUGCAUAGUGAAGGAGCGCGAUUUGCAGUGAUGUUGCAAAUUUAAACAAUCUUAUCUUUUCGCAGGUAGGUCGCACUAUGCAUA [JR_Nu_SSArginiB_Sub021] | 94.1 nM | 90.3 nM | 88.2 nM | 80.9 nM | 88.7 nM
23 | AAUGUACAGGGAAGGAGCGUAGUCCAGUGAUGUUGGAGUUAAAUACCAGUGAUGUUGGUUAUACAGGUAGGUCGCCCUAAAGUGC [Exclusion Arginine B Gf 4] | 87 nM | 65.3 nM | 80.9 nM | 84.3 nM | 76 nM
24 | AAUUUAUAUUUAUUCUUUAAAUGUUCAGAAGGAGCGUGAAUUAUCACAGGUAGGUCGCUGAGCUAGUGAUGUUAGCUAUAUACUA [JR_ExcArginiA_Sub007] | 50.3 nM | 95.3 nM | 67.7 nM | 97 nM | 47.5 nM
25 | ACAAAAGUGAUGUUUUUGAACGUGCGCGAUACCAGAAAUGUCUUCUUCCCUUGGCAGCGCUAUUACUUGUAAGAAAGUACGUUUC [theeternabot_sameState_KL_Theo_A_17] | 969 nM | 528 nM | 870 nM | 774 nM | 490 nM
26 | ACAAUGAUCAAAGGAUAUCGUAAGUUAUACAUCACGCGAUGAUUCAGAGGCGAGUGAUGUUUGUCUCGAGAAGGUUGGUACCGUC [theeternabot_exclusion_KL_FMN_B_37] | 366 nM | 539 nM | 521 nM | 599 nM | 568 nM
27 | ACACUAUCGUCAUAGACGGUAGUGAAAGCUGAGGAUAUGAGUGAUGUUAGAAGGUAGCAAGACUGUAUCGAAUAGAUACAGUCAA [FmnA 5 #K4BetweenAptamer #OpenEnded] | 227 nM | 111 nM | 163 nM | 162 nM | 141 nM
28 | ACAUGACGUGCGCCCGUCAUGAAACGUGCAAAGGAUAUUCCGUUUUGAAGAAGGUUGCGGUAGUGUAGUGAUGUUGCUCCGCCGU [theeternabot_sameState_KL_FMN_A_11] | 512 nM | 360 nM | 343 nM | 315 nM | 347 nM
29 | ACCAUCAAAGAUGGCCAGGACUCCGCUGAUACCAGAGUGGAAACACUCCCUUGGCAGCAGGUGAGUGAUGUUCACAGUCCAUGGA [Omel KL Theo A SS B v4] | 374 nM | 348 nM | 421 nM | 380 nM | 341 nM
30 | ACCGCAUUGGGAUGAUCCCAAUGCGCUGGUCGAGGACCGGUACGGCCGCCACUCGUCCAGUGAUGUUGGAAUUGGGCUACUGAAG [KL-XTryp-A11] | 134 nM | 86.7 nM | 183 nM | 195 nM | 61.1 nM
31 | ACGACGCAUAGUGAUACCAGCAUUAUAUGAGUGAUGUUCUACCUAAAAUGGUAAUAAUUAUGCCCUUGGCAGCACUAUGCGUCAG [KL-SSTheoB3] | 340 nM | 400 nM | 409 nM | 501 nM | 247 nM
32 | ACGAUUUACAGAAGGAGCGUGUAUUUAUCUACAAUUUUCUUAGCGAGUGAUGUUCGUUAUACACAGGUAGGUCGCUGUAUAUCGA [JR_ExcArginiB_Sub013] | 185 nM | 214 nM | 201 nM | 199 nM | 174 nM
33 | ACGCCGAGGACGGCCGCCACUAUGACGAAGUCCGUUCCUAUUACUGCGCGAGUGAUGUUCACGACUAGGACCGGGUCUAUGAGCU [theeternabot_exclusion_KL_Trp_B_28] | 775 nM | 708 nM | 843 nM | 771 nM | 631 nM
34 | ACGGCGCUGGAACCAGUAAUGGGAAGAAUGCGAGGACCGGUACGGCCGCCACUCGCUUCCAGUGAUGUUGGAAGUGAGCCAACAA [Geerzaedre] | 272 nM | 275 nM | 304 nM | 277 nM | 181 nM
35 | ACGGGUCGACGAAGGAGCGCCGUGCAGUGAUGUUGCAGUUAGAUCCAGUGAUGUUUGGGCCGGCAGGUAGGUCGCGUCGACUCAU [Exclusion Arginine B GF 21] | 344 nM | 225 nM | 278 nM | 291 nM | 243 nM
36 | ACGUCACGUAAACUCGUGGUUUCGAUCGAUACCAGUAGCGAGAGUUACCCUUGGCAGCGACAUGAGUGAUGUUCAUGUACGAAGA [KL-XTheoA1] | 101 nM | 89.1 nM | 97 nM | 102 nM | 91.7 nM
37 | ACGUCACGUAUACUCGUGGUUUCGAUCGAUACCAGUAGCGAGAGUUACCCUUGGCAGCGACAUGAGUGAUGUUCAUGUGCGAAGA [KL-XTheo-A3 #analogue] | 118 nM | 106 nM | 112 nM | 104 nM | 111 nM
38 | ACGUCACGUAUACUGGUGGUUUCGAUCGAUACCAGUAGCGAGAGUUACCCUUGGCAGCGACAUGAGUGAUGUUCAUGUAUGAAGA [KL-XTheo-A1 #analogue] | 100 nM | 111 nM | 102 nM | 113 nM | 95.7 nM
39 | ACGUCCGGGUUAAUCGUGGGCGUGGUGGAUACCAGUUCUUCAAUGAACCCUUGGCAGCCACGUGAGUGAUGUUCACGUGCGAUGA [#15 K4 Theophylline A Exclusion] | 98.7 nM | 83.3 nM | 89.5 nM | 88.7 nM | 88.6 nM
40 | ACUGAGCAUGCGGCCGCCACUUCAGAACGUCGCCCAAAGGGCGACGCCUCCACAGUGAUGUUGUGGAGGACCGGGCAUGUUCAGA [Omei KL Tryp B Exc A v2] | 152 nM | 113 nM | 136 nM | 111 nM | 144 nM
41 | ACUUGAGCACAUAGCACACCAAGCAGUAGGUAGGAUAUCCGGCUUAGGAGAAGGACCAUGCAGUGAUGUUGCAUGCUCCUCCAUG [Zaribies] | 258 nM | 95.8 nM | 76 nM | 92.3 nM | 99.9 nM
42 | AGAAAAGGGACGAUCGUCGAGUUGCCAGAAGGAGCGGUAAUUUUACCAGGUAGGUCGCUGGCCCAGUGAUGUUGGGCUUUUAAGA [Biisinaor] | 105 nM | 96.5 nM | 125 nM | 133 nM | 92.4 nM
